Measured values: the supplement of paper PMC10266784

B1: library; numbered along this chain (parent)
chain: MAAAAAAAAEQQSSNGPVKKSMREKAVERRSVNKEHNSNFKAGYIPIDEDRLHKTGLRGRKGNLAICVIILLFILAVINLIITLVIWAVIRIGPNGCDSMEFHESGLLRFKQVSDMGVIHPLYKSTVGGRRNENLVITGNNQPIVFQQGTTKLSVENNKTSITSDIGMQFFDPRTQNILFSTDYETHEFHLPSGVKSLNVQKASTERITSNATSDLNIKVDGRAIVRGNEGVFIMGKTIEFHMGGNMELKAENSIILNGSVMVSTTRLPSSSSGDQLGSGDWVRYKLCMCADGTLFKVQVTSQNMGCQISDNPCGNTH

Variants of: B1
Assay: SGCB cell-surface expression functional score (HA stain, bin4 vs bin1, normalised to synonymous) (log10 ratio); higher = more cell-surface SGCB (functional)
Summary of the method: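 The functional score is a log ratio of variant frequency in the highest versus the lowest intensity bin, expressed as a median over codons and duplicate transductions. Codon-saturation libraries of HA-tagged, YFP-fused human beta-sarcoglycan were transduced by lentivirus at MOI <0.1 into HEK293 cells stably expressing alpha-, gamma- and delta-sarcoglycan, and the cells were stained on ice with Alexa Fluor 647 anti-HA, fixed and sorted into four 5% intensity bins before amplicon sequencing. Synonymous variants were scaled to mean 0, SD 0.5 within each section.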

| Variant | SGCB cell-surface expression functional score (log10) |
| --- | --- |
| MAAAAAAAAEQQSSNGPVKKSMREKAVERRSVNKEHNSNFKAGYIPIDEDRLHKTGLRGRKGNLAICVIILLFILAVINLIITLVIWAVIRIGPNGCDSMEFHESGLLRFKQVSDMGVIHPLYKSTVGGRRNENLVITGNNQPIVFQQGTTKLSVENNKTSITSDIGMQFFDPRTQNILFSTDYETHEFHLPSGVKSLNVQKASTERITSNATSDLNIKVDGRAIVRGNEGVFIMGKTIEFHMGGNMELKAENSIILNGSVMFSTTRLPSSSSGDQLGSGDWVRYKLCMCADGTLFKVQVTSQNMGCQISDNPCGNTH [V263F] | 0.35 |
| MAAAAAAAAEQQSSNGPVKKSMREKAVERRSVNKEHNSNFKAGYIPIDEDRLHKTGLRGRKGNLAICVIILLFILAVINLIITLVIWAVIRIGPNGCDSMEFHESGLLRFKQVSDMGVIHPLYKSTVGGRRNENLVITGNNQPIVFQQGTTKLSVENNKTSITSDIGMQFFDPRTQNILFSTDYETHEFHLPSGVKSLNVQKASTERITSNATSDLNIKVDGRAIVRGNEGVFIMGKTIEFHMGGNMELKAENSIILNGSVMESTTRLPSSSSGDQLGSGDWVRYKLCMCADGTLFKVQVTSQNMGCQISDNPCGNTH [V263E] | -0.52 |
| MAAAAAAAAEQQSSNGPVKKSMREKAVERRSVNKEHNSNFKAGYIPIDEDRLHKTGLRGRKGNLAICVIILLFILAVINLIITLVIWAVIRIGPNGCDSMEFHESGLLRFKQVSDMGVIHPLYKSTVGGRRNENLVITGNNQPIVFQQGTTKLSVENNKTSITSDIGMQFFDPRTQNILFSTDYETHEFHLPSGVKSLNVQKASTERITSNATSDLNIKVDGRAIVRGNEGVFIMGKTIEFHMGGNMELKAENSIILNGSVMDSTTRLPSSSSGDQLGSGDWVRYKLCMCADGTLFKVQVTSQNMGCQISDNPCGNTH [V263D] | -0.53 |
| MAAAAAAAAEQQSSNGPVKKSMREKAVERRSVNKEHNSNFKAGYIPIDEDRLHKTGLRGRKGNLAICVIILLFILAVINLIITLVIWAVIRIGPNGCDSMEFHESGLLRFKQVSDMGVIHPLYKSTVGGRRNENLVITGNNQPIVFQQGTTKLSVENNKTSITSDIGMQFFDPRTQNILFSTDYETHEFHLPSGVKSLNVQKASTERITSNATSDLNIKVDGRAIVRGNEGVFIMGKTIEFHMGGNMELKAENSIILNGSVMASTTRLPSSSSGDQLGSGDWVRYKLCMCADGTLFKVQVTSQNMGCQISDNPCGNTH [V263A] | -0.4 |
| MAAAAAAAAEQQSSNGPVKKSMREKAVERRSVNKEHNSNFKAGYIPIDEDRLHKTGLRGRKGNLAICVIILLFILAVINLIITLVIWAVIRIGPNGCDSMEFHESGLLRFKQVSDMGVIHPLYKSTVGGRRNENLVITGNNQPIVFQQGTTKLSVENNKTSITSDIGMQFFDPRTQNILFSTDYETHEFHLPSGVKSLNVQKASTERITSNATSDLNIKVDGRAIVRGNEGVFIMGKTIEFHMGGNMELKAENSIILNGSVMLSTTRLPSSSSGDQLGSGDWVRYKLCMCADGTLFKVQVTSQNMGCQISDNPCGNTH [V263L] | 0.09 |
| MAAAAAAAAEQQSSNGPVKKSMREKAVERRSVNKEHNSNFKAGYIPIDEDRLHKTGLRGRKGNLAICVIILLFILAVINLIITLVIWAVIRIGPNGCDSMEFHESGLLRFKQVSDMGVIHPLYKSTVGGRRNENLVITGNNQPIVFQQGTTKLSVENNKTSITSDIGMQFFDPRTQNILFSTDYETHEFHLPSGVKSLNVQKASTERITSNATSDLNIKVDGRAIVRGNEGVFIMGKTIEFHMGGNMELKAENSIILNGSVMGSTTRLPSSSSGDQLGSGDWVRYKLCMCADGTLFKVQVTSQNMGCQISDNPCGNTH [V263G] | -0.03 |
| MAAAAAAAAEQQSSNGPVKKSMREKAVERRSVNKEHNSNFKAGYIPIDEDRLHKTGLRGRKGNLAICVIILLFILAVINLIITLVIWAVIRIGPNGCDSMEFHESGLLRFKQVSDMGVIHPLYKSTVGGRRNENLVITGNNQPIVFQQGTTKLSVENNKTSITSDIGMQFFDPRTQNILFSTDYETHEFHLPSGVKSLNVQKASTERITSNATSDLNIKVDGRAIVRGNEGVFIMGKTIEFHMGGNMELKAENSIILNGSVMHSTTRLPSSSSGDQLGSGDWVRYKLCMCADGTLFKVQVTSQNMGCQISDNPCGNTH [V263H] | 0.31 |
| MAAAAAAAAEQQSSNGPVKKSMREKAVERRSVNKEHNSNFKAGYIPIDEDRLHKTGLRGRKGNLAICVIILLFILAVINLIITLVIWAVIRIGPNGCDSMEFHESGLLRFKQVSDMGVIHPLYKSTVGGRRNENLVITGNNQPIVFQQGTTKLSVENNKTSITSDIGMQFFDPRTQNILFSTDYETHEFHLPSGVKSLNVQKASTERITSNATSDLNIKVDGRAIVRGNEGVFIMGKTIEFHMGGNMELKAENSIILNGSVMKSTTRLPSSSSGDQLGSGDWVRYKLCMCADGTLFKVQVTSQNMGCQISDNPCGNTH [V263K] | -0.87 |
| MAAAAAAAAEQQSSNGPVKKSMREKAVERRSVNKEHNSNFKAGYIPIDEDRLHKTGLRGRKGNLAICVIILLFILAVINLIITLVIWAVIRIGPNGCDSMEFHESGLLRFKQVSDMGVIHPLYKSTVGGRRNENLVITGNNQPIVFQQGTTKLSVENNKTSITSDIGMQFFDPRTQNILFSTDYETHEFHLPSGVKSLNVQKASTERITSNATSDLNIKVDGRAIVRGNEGVFIMGKTIEFHMGGNMELKAENSIILNGSVMCSTTRLPSSSSGDQLGSGDWVRYKLCMCADGTLFKVQVTSQNMGCQISDNPCGNTH [V263C] | 1 |
| MAAAAAAAAEQQSSNGPVKKSMREKAVERRSVNKEHNSNFKAGYIPIDEDRLHKTGLRGRKGNLAICVIILLFILAVINLIITLVIWAVIRIGPNGCDSMEFHESGLLRFKQVSDMGVIHPLYKSTVGGRRNENLVITGNNQPIVFQQGTTKLSVENNKTSITSDIGMQFFDPRTQNILFSTDYETHEFHLPSGVKSLNVQKASTERITSNATSDLNIKVDGRAIVRGNEGVFIMGKTIEFHMGGNMELKAENSIILNGSVMISTTRLPSSSSGDQLGSGDWVRYKLCMCADGTLFKVQVTSQNMGCQISDNPCGNTH [V263I] | 0.77 |
